Data from paper PMC9450512.
Where “and” joins values, the source holds several entries; their conditions need not be identical. Equal entries are not always repeated.

Biological target: Catalytic Domain of Human HDAC7 (cdHDAC7), biotinylated (human)
Assay: BLI

For “Ac-Leu-Gly-Lys(Ac)-NH2 (LGKAc), acetylated peptide derived from histone 4 lysine 12”, the Kd was 0.72 µM and 1 µM.
